The experiment addresses m971 scFv with short (GGGGS) linker. The experiment in a line: SEC.

For orientation: stoichiometry N means a count of units in the complex or per binding partner.

Take m971 scFv with short (GGGGS) linker: the stoichiometry N was 2.

The values above are taken from publication PMC8451032.
